B1: F-box only protein 7 (Homo sapiens), Q9Y3I1 (parent)
chain: MRLRVRLLKRTWPLEVPETEPTLGHLRSHLRQSLLCTWGYSSNTRFTITLNYKDPLTGDEETLASYGIVSGDLICLILQDDIPAPNIPSSTDSEHSSLQNNEQPSLATSSNQTSMQDEQPSDSFQGQAAQSGVWNDDSMLGPSQNFEAESIQDNAHMAEGTGFYPSEPMLCSESVEGQVPHSLETLYQSADCSDANDALIVLIHLLMLESGYIPQGTEAKALSMPEKWKLSGVYKLQYMHPLCEGSSATLTCVPLGNLIVVNATLKINNEIRSVKRLQLLPESFICKEKLGENVANIYKDLQKLSRLFKDQLVYPLLAFTRQALNLPDVFGLVVLPLELKLRIFRLLDVRSVLSLSAVCRDLFTASNDPLLWRFLYLRDFRDNTVRVQDTDWKELYRKRHIQRKESPKGRFVMLLPSSTHTIPFYPNPLHPRPFPSSRLPPGIIGGEYDQRPTLPYVGDPISSLIPGPGETPSQFPPLRPRFDPVGPLPGPNPILPGRGGPNDRFPFRPSRGRPTDGRLSFM
partner: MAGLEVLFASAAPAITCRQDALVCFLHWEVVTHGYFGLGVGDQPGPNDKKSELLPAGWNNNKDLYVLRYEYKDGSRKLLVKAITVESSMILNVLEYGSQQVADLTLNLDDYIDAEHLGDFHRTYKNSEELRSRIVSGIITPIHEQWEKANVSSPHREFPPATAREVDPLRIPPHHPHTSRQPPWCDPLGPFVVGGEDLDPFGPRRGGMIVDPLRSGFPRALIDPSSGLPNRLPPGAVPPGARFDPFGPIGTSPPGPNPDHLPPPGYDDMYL
B2: Meiotic recombination protein DMC1/LIM15 homolog (Homo sapiens), Q14565 (parent)
chain: MKEDQVVAEEPGFQDEEESLFQDIDLLQKHGINVADIKKLKSVGICTIKGIQMTTRRALCNVKGLSEAKVDKIKEAANKLIEPGFLTAFEYSEKRKMVFHITTGSQEFDKLLGGGIESMAITEAFGEFRTGKTQLSHTLCVTAQLPGAGGYPGGKIIFIDTENTFRPDRLRDIADRFNVDHDAVLDNVLYARAYTSEHQMELLDYVAAKFHEEAGIFKLLIIDSIMALFRVDFSGRGELAERQQKLAQMLSRLQKISEEYNVAVFVTNQMTADPGATMTFQADPKKPIGGHILAHASTTRISLRKGRGELRIAKIYDSPEMPENEATFAITAGGIGDAKE
partner: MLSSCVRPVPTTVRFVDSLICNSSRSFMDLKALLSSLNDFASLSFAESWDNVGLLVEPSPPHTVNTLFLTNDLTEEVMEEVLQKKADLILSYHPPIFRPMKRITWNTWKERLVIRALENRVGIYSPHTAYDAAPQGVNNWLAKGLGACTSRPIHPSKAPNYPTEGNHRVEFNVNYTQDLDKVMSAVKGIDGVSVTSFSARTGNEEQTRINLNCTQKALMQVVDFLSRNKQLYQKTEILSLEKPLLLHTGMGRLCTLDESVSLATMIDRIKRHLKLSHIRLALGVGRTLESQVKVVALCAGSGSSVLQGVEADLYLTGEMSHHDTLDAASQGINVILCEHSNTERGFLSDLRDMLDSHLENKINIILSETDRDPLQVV
B3: EF-hand domain-containing protein 1 (Homo sapiens), Q5JVL4 (parent)
chain: MVSNPVHGLPFLPGTSFKDSTKTAFHRSQTLSYRNGYAIVRRPTVGIGGDRLQFNQLSQAELDELASKAPVLTYGQPKQAPPADFIPAHVAFDKKVLKFDAYFQEDVPMSTEEQYRIRQVNIYYYLEDDSMSVIEPVVENSGILQGKLIKRQRLAKNDRGDHYHWKDLNRGINITIYGKTFRVVDCDQFTQVFLESQGIELNPPEKMALDPYTELRKQPLRKYVTPSDFDQLKQFLTFDKQVLRFYAIWDDTDSMYGECRTYIIHYYLMDDTVEIREVHERNDGRDPFPLLMNRQRVPKVLVENAKNFPQCVLEISDQEVLEWYTAKDFIVGKSLTILGRTFFIYDCDPFTRRYYKEKFGITDLPRIDVSKREPPPVKQELPPYNGFGLVEDSAQNCFALIPKAPKKDVIKMLVNDNKVLRYLAVLESPIPEDKDRRFVFSYFLATDMISIFEPPVRNSGIIGGKYLGRTKVVKPYSTVDNPVYYGPSDFFIGAVIEVFGHRFIILDTDEYVLKYMESNAAQYSPEALASIQNHVRKREAPAPEAESKQTEKDPGVQELEALIDTIQKQLKDHSCKDNIREAFQIYDKEASGYVDRDMFFKICESLNVPVDDSLVKELIRMCSHGEGKINYYNFVRAFSN
partner: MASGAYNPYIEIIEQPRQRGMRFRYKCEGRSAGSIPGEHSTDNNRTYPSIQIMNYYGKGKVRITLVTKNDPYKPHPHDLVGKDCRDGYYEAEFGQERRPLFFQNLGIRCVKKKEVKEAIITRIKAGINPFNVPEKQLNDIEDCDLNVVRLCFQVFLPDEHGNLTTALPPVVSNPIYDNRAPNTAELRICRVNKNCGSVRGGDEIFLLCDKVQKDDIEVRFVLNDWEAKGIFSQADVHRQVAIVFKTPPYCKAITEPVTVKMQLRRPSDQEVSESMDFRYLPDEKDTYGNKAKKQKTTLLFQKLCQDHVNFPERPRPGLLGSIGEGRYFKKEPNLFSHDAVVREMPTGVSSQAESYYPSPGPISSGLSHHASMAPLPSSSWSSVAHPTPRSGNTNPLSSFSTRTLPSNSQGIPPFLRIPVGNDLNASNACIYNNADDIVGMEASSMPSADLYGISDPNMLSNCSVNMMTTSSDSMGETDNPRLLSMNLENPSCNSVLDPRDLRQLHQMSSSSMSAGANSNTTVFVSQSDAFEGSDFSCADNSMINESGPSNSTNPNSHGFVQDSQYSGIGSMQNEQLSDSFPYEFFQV
B4: Estrogen receptor beta (Homo sapiens), Q92731-3 (parent)
chain: MDIKNSPSSLNSPSSYNCSQSILPLEHGSIYIPSSYVDSHHEYPAMTFYSPAVMNYSIPSNVTNLEGGPGRQTTSPNVLWPTPGHLSPLVVHRQLSHLYAEPQKSPWCEARSLEHTLPVNRETLKRKVSGNRCASPVTGPGSKRDAHFCAVCSDYASGYHYGVWSCEGCKAFFKRSIQGHNDYICPATNQCTIDKNRRKSCQACRLRKCYEVGMVKCGSRRERCGYRLVRRQRSADEQLHCAGKAKRSGGHAPRVRELLLDALSPEQLVLTLLEAEPPHVLISRPSAPFTEASMMMSLTKLADKELVHMISWAKKIPGMRGNA
B5: Cyclin-dependent kinase 4 inhibitor C (Homo sapiens), P42773 (parent)
chain: MAEPWGNELASAAARGDLEQLTSLLQNNVNVNAQNGFGRTALQVMKLGNPEIARRLLLRGANPDLKDRTGFAVIHDAARAGFLDTLQTLLEFQADVNIEDNEGNLPLHLAAKEGHLRVVEFLVKHTASNVGHRNHKGDTACDLARLYGRNEVVSLMQANGAGGATNLQ
partner: B2 partner
B6: Vitamin D3 receptor (Homo sapiens), P11473 (parent)
chain: MEAMAASTSLPDPGDFDRNVPRICGVCGDRATGFHFNAMTCEGCKGFFRRSMKRKALFTCPFNGDCRITKDNRRHCQACRLKRCVDIGMMKEFILTDEEVQRKREMILKRKEEEALKDSLRPKLSEEQQRIIAILLDAHHKTYDPTYSDFCQFRPPVRVNDGGGSHPSRPNSRHTPSFSGDSSSSCSDHCITSSDMMDSSSFSNLDLSEEDSDDPSVTLELSQLSMLPHLADLVSYSIQKVIGFAKMIPGFRDLTSEDQIVLLKSSAIEVIMLRSNESFTMDDMSWTCGNQDYKYRVSDVTKAGHSLELIEPLIKFQVGLKKLNLHEEEHVLLMAICIVSPDRPGVQDAALIEAIQDRLSNTLQTYIRCRHPPPGSHLLYAKMIQKLADLRSLNEEHSKQYRCLSFQPECSMKLTPLVLEVFGNEIS
partner: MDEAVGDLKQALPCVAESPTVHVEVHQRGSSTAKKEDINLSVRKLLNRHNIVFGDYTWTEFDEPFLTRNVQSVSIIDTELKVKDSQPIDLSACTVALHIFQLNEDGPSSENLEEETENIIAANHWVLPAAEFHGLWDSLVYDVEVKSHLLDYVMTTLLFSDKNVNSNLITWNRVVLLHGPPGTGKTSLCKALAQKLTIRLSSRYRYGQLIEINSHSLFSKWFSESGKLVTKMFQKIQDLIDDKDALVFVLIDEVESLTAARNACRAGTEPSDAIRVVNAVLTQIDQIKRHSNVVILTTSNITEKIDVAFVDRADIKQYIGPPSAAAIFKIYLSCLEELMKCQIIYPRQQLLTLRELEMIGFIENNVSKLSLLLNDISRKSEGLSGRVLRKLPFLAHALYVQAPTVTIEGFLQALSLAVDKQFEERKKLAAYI
B7: Multifunctional procollagen lysine hydroxylase and glycosyltransferase LH3 (Homo sapiens), O60568 (parent)
chain: MTSSGPGPRFLLLLPLLLPPAASASDRPRGRDPVNPEKLLVITVATAETEGYLRFLRSAEFFNYTVRTLGLGEEWRGGDVARTVGGGQKVRWLKKEMEKYADREDMIIMFVDSYDVILAGSPTELLKKFVQSGSRLLFSAESFCWPEWGLAEQYPEVGTGKRFLNSGGFIGFATTIHQIVRQWKYKDDDDDQLFYTRLYLDPGLREKLSLNLDHKSRIFQNLNGALDEVVLKFDRNRVRIRNVAYDTLPIVVHGNGPTKLQLNYLGNYVPNGWTPEGGCGFCNQDRRTLPGGQPPPRVFLAVFVEQPTPFLPRFLQRLLLLDYPPDRVTLFLHNNEVFHEPHIADSWPQLQDHFSAVKLVGPEEALSPGEARDMAMDLCRQDPECEFYFSLDADAVLTNLQTLRILIEENRKVIAPMLSRHGKLWSNFWGALSPDEYYARSEDYVELVQRKRVGVWNVPYISQAYVIRGDTLRMELPQRDVFSGSDTDPDMAFCKSFRDKGIFLHLSNQHEFGRLLATSRYDTEHLHPDLWQIFDNPVDWKEQYIHENYSRALEGEGIVEQPCPDVYWFPLLSEQMCDELVAEMEHYGQWSGGRHEDSRLAGGYENVPTVDIHMKQVGYEDQWLQLLRTYVGPMTESLFPGYHTKARAVMNFVVRYRPDEQPSLRPHHDSSTFTLNVALNHKGLDYEGGGCRFLRYDCVISSPRKGWALLHPGRLTHYHEGLPTTWGTRYIMVSFVDP
partner: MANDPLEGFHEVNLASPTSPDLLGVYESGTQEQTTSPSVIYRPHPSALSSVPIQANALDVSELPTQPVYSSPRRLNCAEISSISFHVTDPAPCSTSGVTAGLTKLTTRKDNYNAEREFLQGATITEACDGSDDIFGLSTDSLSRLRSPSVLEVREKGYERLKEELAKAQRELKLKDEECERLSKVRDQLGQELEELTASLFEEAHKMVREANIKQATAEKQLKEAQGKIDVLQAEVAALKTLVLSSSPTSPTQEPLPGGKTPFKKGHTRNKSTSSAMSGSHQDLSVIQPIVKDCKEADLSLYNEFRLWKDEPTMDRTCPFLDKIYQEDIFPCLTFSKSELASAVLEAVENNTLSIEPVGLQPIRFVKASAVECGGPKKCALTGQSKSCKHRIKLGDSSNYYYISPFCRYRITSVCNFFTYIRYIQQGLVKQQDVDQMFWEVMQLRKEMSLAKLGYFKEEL
B8: Dolichol-phosphate mannosyltransferase subunit 1 (Homo sapiens), O60762 (parent)
chain: MASLEVSRSPRRSRRELEVRSPRQNKYSVLLPTYNERENLPLIVWLLVKSFSESGINYEIIIIDDGSPDGTRDVAEQLEKIYGSDRILLRPREKKLGLGTAYIHGMKHATGNYIIIMDADLSHHPKFIPEFIRKQKEGNFDIVSGTRYKGNGGVYGWDLKRKIISRGANFLTQILLRPGASDLTGSFRLYRKEVLEKLIEKCVSKGYVFQMEMIVRARQLNYTIGEVPISFVDRVYGESKLGGNEIVSFLKGLLTLFATT
B9: Tumor necrosis factor receptor superfamily member 13B (Homo sapiens), O14836-2 (parent)
chain: MSGLGRSRRGGRSRVDQEERWSLSCRKEQGKFYDHLLRDCISCASICGQHPKQCAYFCENKLRSPVNLPPELRRQRSGEVENNSDNSGRYQGLEHRGSEASPALPGLKLSADQVALVYSTLGLCLCAVLCCFLVAVACFLKKRGDPCSCQPRSRPRQSPAKSSQDHAMEAGSPVSTSPEPVETCSFCFPECRAPTQESAVTPGTPDPTCAGRWGCHTRTTVLQPCPHIPDSGLGIVCVPAQEGGPGA

Variants of: B1
Settings: with psmf1_human PSMF1, Q92530

| effect of a mutation on the interaction | Variant |
| --- | --- |
| disrupting interaction strength | T22M |

Variants of: B2
Settings: with nif3l_human NIF3L1, Q9GZT8

| effect of a mutation on the interaction | Variant |
| --- | --- |
| disrupting interaction strength | M200V |

Variants of: B3
Settings: with REL

| effect of a mutation on the interaction | Variant |
| --- | --- |
| disrupting interaction strength | R221H |
| disrupting interaction strength | T508R |
| with no effect | M448T |
| disrupting interaction strength | A394S |
| disrupting interaction strength | P77T |
| with no effect | R159W |

Variants of: B4
Settings: with tfcp2_human TFCP2, Q12800
tfcp2_human TFCP2, Q12800, sequence (Q12800 whole entry): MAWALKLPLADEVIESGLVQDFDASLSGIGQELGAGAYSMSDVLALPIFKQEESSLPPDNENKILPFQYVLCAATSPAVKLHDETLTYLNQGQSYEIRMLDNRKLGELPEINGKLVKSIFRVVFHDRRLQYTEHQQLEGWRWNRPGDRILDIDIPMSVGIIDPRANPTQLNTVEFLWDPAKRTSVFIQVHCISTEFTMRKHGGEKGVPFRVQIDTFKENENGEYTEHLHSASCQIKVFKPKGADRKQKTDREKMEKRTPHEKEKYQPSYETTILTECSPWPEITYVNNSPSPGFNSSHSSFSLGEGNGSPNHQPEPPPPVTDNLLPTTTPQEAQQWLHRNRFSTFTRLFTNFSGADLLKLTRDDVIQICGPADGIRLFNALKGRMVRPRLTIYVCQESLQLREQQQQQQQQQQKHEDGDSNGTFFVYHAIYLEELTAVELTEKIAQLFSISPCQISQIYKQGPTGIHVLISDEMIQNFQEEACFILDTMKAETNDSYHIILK

| effect of a mutation on the interaction | Variant |
| --- | --- |
| causing an interaction | F289L |

Variants of: B4
Settings: with mdfi_human MDFI

| effect of a mutation on the interaction | Variant |
| --- | --- |
| causing an interaction | F289L |

Variants of: B5
Settings: with nif3l_human NIF3L1, Q9GZT8

| effect of a mutation on the interaction | Variant |
| --- | --- |
| disrupting interaction strength | V31L |

Variants of: B6
Settings: with pch2_human TRIP13, Q15645

| effect of a mutation on the interaction | Variant |
| --- | --- |
| with no effect | I268T |
| disrupting interaction strength | E329K |
| with no effect | G33D |
| with no effect | C190W |

Variants of: B7
Settings: with RAB3IP

| effect of a mutation on the interaction | Variant |
| --- | --- |
| with no effect | N223S |

Variants of: B8
Settings: with t23o_human TDO2, P48775
t23o_human TDO2, P48775, sequence (P48775 whole entry, looked up): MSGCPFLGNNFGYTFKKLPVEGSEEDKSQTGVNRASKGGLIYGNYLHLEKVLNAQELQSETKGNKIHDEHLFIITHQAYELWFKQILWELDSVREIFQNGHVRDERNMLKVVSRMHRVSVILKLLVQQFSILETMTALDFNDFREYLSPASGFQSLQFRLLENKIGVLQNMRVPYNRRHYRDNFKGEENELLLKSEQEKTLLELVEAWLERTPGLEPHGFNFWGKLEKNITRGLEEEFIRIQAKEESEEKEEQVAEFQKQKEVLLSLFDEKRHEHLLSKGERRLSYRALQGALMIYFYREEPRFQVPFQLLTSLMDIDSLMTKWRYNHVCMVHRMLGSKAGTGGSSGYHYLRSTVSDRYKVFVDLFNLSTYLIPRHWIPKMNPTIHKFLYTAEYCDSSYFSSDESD

| effect of a mutation on the interaction | Variant |
| --- | --- |
| with no effect | S248P |
| with no effect | R92G |

Variants of: B9
Settings: with sgta_human SGTA

| effect of a mutation on the interaction | Variant |
| --- | --- |
| with no effect | K142M |
| with no effect | V174A |
